For the assay, the target named is T1, recombinant HTNV Gn ectodomain (residues 18 to 371) (Hantaan virus (Orthohantavirus …)).
T1 construct: also called N-terminal ectodomain of HTNV Gn; soluble HTNV Gn ectodomain
Description: crystal structure. Particulars: both partners purified.

We go through 2 molecules from publication PMC8406324, “Structural Basis for a Neutralizing Antibody Response Elicited by a Recombinant Hantaan Virus Gn Immunogen” (mBio, 2021).

B1: Fab HTN-Gn1 (Fab, V domains shown)
VH: QSLVESGGDLVKPEGSLTLTCTASGFSFSSTHWICWVRQAPGKGLEWIACIYVGNTYDSYYANWAKGRFTISKTSSTTVTLQMTTLTAADTATYFCARSGSVFGVVSLWGPGTLVTVSS
VL: GQVLTQTPASVSEPVEGTVTIKCQASQSINNWLSWYQQRPGQPPKLLIYDASTVASGVSSRFKGSGSGTEFTLTISDLECADAATYACQSYGYGISITDNSAFGGGTEVVVR
notes: also called HTN-Gn1-Fab; HTNV-Gn1-Fab
Consider B1, for which the binding result is “binds”.

B2: Fab nnHTN-Gn2 (Fab, V domains shown)
VH: QSLEESGGRLVTPGTPLTLTCTVSGFSLSNYNMQWVRQAPGKGLEWIGIVYTGGVAWYARWAKGRFTISRTSTTVDLKITSPTTEDTATYFCARAYTSNSDIVFDPWGPGTLVTVSS
VL: GQVLTQTPASVSAAVGGTVTIKCQASQSVSTALAWYQQKPGQRPKLLIYLASTLTSGVPSRFKGSGSGTEFTLTISGVECDDAATYYCQQGYSYSNVDNSFGGGTEVVVK
notes: also called Fab nnHTNV-Gn2
Turning to B2, the binding result is recorded as “binds”.
